The target of assay [1] is VEGF receptors on HUVECs. As to the kind of experiment: competition of 125I-VEGF binding to HUVECs.
Assay [2] concerns the target endothelial cell receptor for TKPPR on human aortic endothelial cells (HAEC). As to the kind of experiment: competition on HAEC: free TKPPR 50 µM against 5% BRU-114 bubbles.
Assay [3] shares this target. The assay can be described thus: competition on HAEC: free TKPPR 500 µM against TKPPR-beads, average n = 11.
The target is the same in assay [4]. The assay can be described thus: competition on HAEC: free TKPPR 200 µM against 10% BRU-114 bubbles.
Assay [5] shares this target. As to the kind of experiment: competition on HAEC: free TKPPR 50 µM against TKPPR-beads, average n = 11.
The target is the same in assay [6]. As to the kind of experiment: competition on HAEC: free TKPPR 50 µM against 10% BRU-114 bubbles.
Assay [7] has the same target. The assay can be described thus: competition on HAEC: free TKPPR 2.5 µM against 1% BRU-114 bubbles, average of two.
Assay [8] shares this target. The assay can be described thus: competition on HAEC: free TKPPR 10 µM against 5% BRU-114 bubbles.
Assay [9] shares this target. As to the kind of experiment: competition on HAEC: free TKPPR 100 µM against TKPPR-beads, average n = 11.
Assay [10] shares this target. As to the kind of experiment: competition on HAEC: free TKPPR 50 µM against 1% BRU-292 bubbles, average of two.
The target is the same in assay [11]. As to the kind of experiment: competition on HAEC: free TKPPR 10 µM against 10% BRU-114 bubbles.
The target is the same in assay [12]. As to the kind of experiment: competition on HAEC: free TKPPR (head: 100 µmol; text: 100 µM) against 1% BRU-114 bubbles.
Assay [13] has the same target. The assay can be described thus: competition on HAEC: free TKPPR 200 µM against TKPPR-beads, average n = 11.
For assay [14] the target is unchanged. As to the kind of experiment: competition on HAEC: free TKPPR 100 µM against 10% BRU-114 bubbles.
Assay [15] shares this target. The assay can be described thus: competition on HAEC: free TKPPR 200 µM against 5% BRU-114 bubbles.
Assay [16] addresses receptor for TKPPR on rabbit aortic endothelial cells (RAEC). The assay can be described thus: competition on RAEC: free TKPPR 100 µM against 5% BRU-114 bubbles.
Assay [17] concerns the target endothelial cell receptor for TKPPR on human aortic endothelial cells (HAEC). The assay can be described thus: competition on HAEC: free TKPPR 10 µM against 1% BRU-292 bubbles, average of two.
The target is the same in assay [18]. As to the kind of experiment: competition on HAEC: free TKPPR 200 µM against 1% BRU-114 bubbles.
Assay [19] shares this target. As to the kind of experiment: competition on HAEC: free TKPPR (head: 100 µmol; text: 100 µM) against 5% BRU-114 bubbles.
Assay [20] has the same target. As to the kind of experiment: competition on HAEC: free TKPPR 25 µM against 2% BRU-114 bubbles.
Assay [21] has the same target. The assay can be described thus: competition on HAEC: free TKPPR 10 µM against 1% BRU-114 bubbles, average of two.
For assay [22] the target is unchanged. As to the kind of experiment: competition on HAEC: free TKPPR 10 µM against TKPPR-beads, average n = 11.
The target is the same in assay [23]. The assay can be described thus: competition on HAEC: free TKPPR 100 µM against 1% BRU-114 bubbles.
The target is the same in assay [24]. The assay can be described thus: competition on HAEC: free TKPPR 25 µM against 1% BRU-292 bubbles, average of two.
Assay [25] shares this target. As to the kind of experiment: competition on HAEC: free TKPPR 100 µM against 5% BRU-114 bubbles.
Assay [26] has the same target. The assay can be described thus: competition on HAEC: free TKPPR 50 µM against 1% BRU-114 bubbles, average of two.
The target is the same in assay [27]. The assay can be described thus: competition on HAEC: free TKPPR (head: 10 µmol; text: 10 µM) against 1% BRU-114 bubbles.
Assay [28] shares this target. As to the kind of experiment: competition on HAEC: free TKPPR 5 µM against 1% BRU-114 bubbles.
Assay [29] shares this target. The assay can be described thus: competition on HAEC: free TKPPR 25 µM against 1% BRU-114 bubbles.
Assay [30] shares this target. The assay can be described thus: competition on HAEC: free TKPPR 25 µM against 1% BRU-114 bubbles, average of two.
Assay [31] shares this target. The assay can be described thus: competition on HAEC: free TKPPR 50 µM against 1% BRU-114 bubbles.
The target is the same in assay [32]. The assay can be described thus: competition on HAEC: free TKPPR 10 µM against 1% BRU-114 bubbles.
The target is the same in assay [33]. As to the kind of experiment: competition on HAEC: free TKPPR (head: 10 µmol; text: 10 µM) against 5% BRU-114 bubbles.
Assay [34] has the same target. As to the kind of experiment: competition on HAEC: free TKPPR 2.5 µM against 1% BRU-292 bubbles, average of two.
Assay [35] shares this target. The assay can be described thus: competition on HAEC: free TKPPR 25 µM against TKPPR-beads, average n = 11.
Assay [36] has the same target. As to the kind of experiment: competition on HAEC: BRU-305 200 µM against 2% BRU-114 bubbles.
Assay [37] shares this target. The assay can be described thus: competition on HAEC: BRU-305 100 µM against 2% BRU-114 bubbles.
For assay [38] the target is unchanged. As to the kind of experiment: competition on HAEC: BRU-305 50 µM against 2% BRU-114 bubbles.
The target is the same in assay [39]. The assay can be described thus: competition on HAEC: BRU-306 200 µM against 2% BRU-114 bubbles.
For assay [40] the target is unchanged. As to the kind of experiment: competition on HAEC: BRU-306 50 µM against 2% BRU-114 bubbles.
Assay [41] shares this target. As to the kind of experiment: competition on HAEC: BRU-306 100 µM against 2% BRU-114 bubbles.
Assay [42] shares this target. As to the kind of experiment: fluorescent beads on confluent HAEC, static, Experiment 1, image analysis.
The target is the same in assay [43]. As to the kind of experiment: competition on HAEC: tuftsin 50 µM against 1% BRU-114 bubbles.
Assay [44] shares this target. As to the kind of experiment: competition on HAEC: tuftsin 5 µM against 1% BRU-114 bubbles.
Assay [45] shares this target. The assay can be described thus: competition on HAEC: tuftsin 25 µM against 1% BRU-114 bubbles.
Assay [46] has the same target. The assay can be described thus: competition on HAEC: tuftsin 100 µM against 1% BRU-114 bubbles.
For assay [47] the target is unchanged. As to the kind of experiment: competition on HAEC: tuftsin 10 µM against 1% BRU-114 bubbles.
For assay [48] the target is unchanged. The assay can be described thus: beads perfused over HAEC in a parallel plate flow cell, 1.53 dynes/cm^2.

Positions of bridges follow the written chain, without caps; N, C: chain ends. No end group written: not given here.

B1: TKPPR tetramer BRU-326, OG-(TKPPR)4 (peptide)
peptide: TKPPR-OH
modifications: not fully specified (N-terminus); printed as OG-(TKPPR)4; also: tetramer: four TKPPR chains joined via branched tetra-acid scaffold
On to B1, for which the 50% inhibitory concentration (IC50) in assay [1] amounted to 10 µM.

Regarding TKPPR-OH [TKPPR (L-threonyl-L-lysyl-L-prolyl-L-prolyl-L-arginine), free monomeric peptide], the Bubbles Bound-5% stood at 440 bubbles in [2], 1340 bubbles in assay [8], 13 bubbles in assay [15] and 12 bubbles in assay [25]. For the same molecule, the % Inhibition in assay [3] worked out at 70.6%; in assay [5], 50.5%; in assay [9], 62%; in [13] it was 72.2%; in assay [22], 30.8%; in assay [35] it was 50.7%. Besides, the Bubbles Bound-10% was 66 bubbles in assay [4], 857 bubbles in assay [6], 1090 bubbles in [11] and 399 bubbles in assay [14]. The Bubbles Bound-BRU-114 Formulation in assay [7] amounted to 1240 bubbles; in assay [21] it was 535 bubbles; in [26], 9 bubbles; in [30], 75 bubbles. The same molecule came in with an IC50 in assay [1] of 250 µM. The molecule also displayed a % more bubbles bound than without competitor in [8] of 19%. Also, the Bubbles Bound-BRU-292 Formulation in assay [10] is 462 bubbles; in [17], 833 bubbles; in [24], 718 bubbles; in assay [34], 888 bubbles. For the same molecule, the Bubbles Bound in [12] was determined as 5 bubbles; in assay [19], 62 bubbles; in assay [23], 17 bubbles; in assay [27], 96 bubbles; in assay [28], 790 bubbles; in [29], 106 bubbles. For the same molecule, the Bubbles Bound in assay [31] came out at 56 bubbles; in [32], 528 bubbles; in [33], 865 bubbles. Further, the RAEC bubbles bound in assay [16] was found to be 21 bubbles. Further, the Bubbles Bound-1% amounted to 4 bubbles in [18], 4 bubbles in assay [23], 5 bubbles in [31] and 10 bubbles in assay [32]. For the same molecule, in assay [20], the Bubbles Bound % is 16 % of control. In addition, the Average % Inhibition in assay [23] was 93.7%; in [28], 45.7%; in assay [29], 82%; in [31], 92.7%; in [32], 79.6%. The HAEC bubbles bound in assay [25] was determined as 58 bubbles. The % inhibition of bubble binding in assay [32] amounted to 82.7%.

Take CTKPPRC [Linear CTKPPRC (BRU-305)]: the Bubbles Bound % in assay [36] is 88 % of control; in assay [37], 78 % of control; in assay [38], 97 % of control.

As to CTKPPRC-OH (disulfide 1-7 (inferred)) [Cyclic disulfide CTKPPRC (BRU-306)], the Bubbles Bound % was 99 % of control in assay [39], 97 % of control in [40] and 71 % of control in assay [41].

The molecule GRGDSP (also: coupled by EDAC to carboxylate-modified microspheres) [GRGDSP-conjugated fluorescent microspheres] had an Integrated density of bound beads (arbitrary units) in assay [42] of 28.6.

TKPR [Tuftsin (TKPR)]: the Bubbles Bound in assay [43] came to 904 bubbles; in [44], 1150 bubbles; in assay [45], 1170 bubbles; in assay [46], 556 bubbles; in assay [47] it was 976 bubbles.

In turn, TKPPR (also: coupled by EDAC to carboxylate-modified microspheres) [TKPPR-conjugated red fluorescent microspheres] displayed an Integrated density of bound beads (arbitrary units) in assay [42] of 230. The molecule also came in with a beads bound at 1.53 dynes/cm^2 in [48] of 86 beads.

For orientation: IC50 means the concentration needed to halve the response being measured. The low end stands for greater potency, the high end for weaker potency. As a reminder, the % Inhibition is how much of the control response was suppressed.

Source of the values: patent US7109167.
